Data on three substances can be found in patent publication US20220387578A1.

A value given as a limit tells only on which side of the number the result lay.

In assay [1] the target is H1 HA A/Solomon Islands/03/2006 (H1N1), recombinant soluble trimer (influenza A virus).
The target of assay [2] is H1 HA A/Texas/36/1991 (H1N1), recombinant soluble trimer (influenza A virus).
In assay [3] the target is H3 HA A/Texas/50/2012, recombinant soluble trimer (influenza A virus).

Regarding “rFluA-20 heavy chain mutant C101A (antibody)”, the results for the EC50 in assay [1], in assay [2] and in assay [3] were 0.2 µg/mL, 0.15 µg/mL and 0.39 µg/mL, respectively.

“rFluA-20 light chain mutant N53A (antibody)”: the EC50 in assay [1] worked out at 0.05 µg/mL; in assay [2], 0.04 µg/mL; in assay [3], 0.09 µg/mL.

For the substance “rFluA-20 light chain mutant Q55A (antibody)”, the EC50 relative to wild type rFluA-20 in assay [1] is greater than 100 fold. Moreover, the EC50 in assay [2] stood at 0.23 µg/mL.

Broadly, the EC50 is the concentration that produces a half-maximal response.
